Laboratory results as given in patent publication US11708423B2, “Chimeric engulfment receptor molecules and methods of use” (CERO THERAPEUTICS, INC., priority 2017, dated 2023).

Key:
[1] = test system: CER-transduced CD4+ T cells; assay: Mass cytometry (CyTOF) with viSNE marker analysis of CER-transduced CD4+ T cells; type: cell-based, human
Text: CD4+ T cells were transduced with lentiviral vector comprising CER104, CER116, or CER117 nucleic acid. CER104 (SEQ ID NO:133) comprises a Tim4 binding domain, Tim4 transmembrane domain, and an engulfment signaling domain comprising a primary engulfment signaling domain comprising a TLR8 signaling domain and a secondary engulfment signaling domain comprising a DAP12 signaling domain. CER116 (SEQ ID NO:143) comprises a Tim4 binding domain, Tim4 transmembrane domain, and an engulfment signaling domain comprising a primary engulfment signaling domain comprising a TRAF6 signaling domain and a secondary engulfment signaling domain comprising a TLR8 signaling domain. CER117 (SEQ ID NO:144) comprises a Tim4 binding domain, Tim4 transmembrane domain, and an engulfment signaling domain comprising a primary engulfment signaling domain comprising a TLR8 signaling domain and a secondary engulfment signaling domain comprising a TRAF6 signaling domain. CER-transduced CD4+ T cells were co-cultured with E7 TCR-transduced CD8+ T cells and HPV+SCC152 target cells and interrogated by mass cytometry (CyTOF) with viSNE for visualization of high dimensional single cell data (FIGS. 82-84). Intact CER-transduced CD4+ T cells are shown in plots displaying tSNE1 (horizontal) and tSNE2 (vertical) axes. 27 intracellular markers were used for the viSNE analysis. Each dot represents a single cell. […] Red represents high expression and blue represents low expression for each marker. Populations of CD4^+ T cells were generated using a clustering algorithm from all 27 markers and overlaid onto the viSNE map. […] Populations of CD4^+ T cells were generated using a clustering algorithm from all 18 markers and overlaid onto the viSNE map (FIG. 83A). […] Color plots by 18 intracellular markers (CD28, CCR7, CD45RA, PD1, CD127, Perforin, CD49d, CD85j, CD38, CD27, Granzyme B, CD57, CD25, CD69, CD154, CD56, HLA-DR, and TCRγδ) show the phenotype across viSNE ‘islands’ (FIG. 83B). Red represents high expression and blue represents low expression for each marker. Highlighted region with arrow indicates cells expressing T cell activation marker CD69. Populations of CD4^+ T cells were generated using a clustering algorithm from 18 intracellular markers (CD28, CCR7, CD45RA, PD1, CD127, Perforin, CD49d, CD85j, CD38, CD27, Granzyme B, CD57, CD25, CD69, CD154, CD56, HLA-DR, and TCRγ6) and overlaid onto the viSNE map. […] Color plots by the 18 intracellular markers show the phenotype across viSNE ‘islands’ (FIG. 84B). Red represents high expression and blue represents low expression for each marker. Highlighted region with arrow indicates cells expressing the naïve T cell marker CD45RA.

[2] = test system: pHrodo-red labeled, dexamethasone treated thymocytes; assay: Luminal degradation of engulfed thymocytes in CER-transduced Ba/F3 cells (time-lapse imaging); type: cell-based
Procedure: Luminal degradation in CER-transduced cells was also evaluated following engulfment. Ba/F3 cells transduced with CER21 or CER116 were co-cultured with pHrodo-red labeled, dexamethasone treated thymocytes overnight and subsequently purified by FACS. Target cell destruction was visualized by time-lapse imaging and quantified over time (FIG. 85F). […] CER116-harboring Ba/F3 cells (top) catabolize target cells, allowing cells to return to homeostasis and resume immune responsiveness. The addition of a TRAF6 signaling domain to the CER construct promotes rapid destruction of engulfed material.

Racl = Racl activation (PAK-PBD pull-down, immunoblot) in CER-transduced Ba/F3 cells; type: cell-based; details: 2 hours co-culture with thymocytes, compared to CER21
Text: The Rho family of GTPases play essential roles in actin assembly during phagocytosis. Inhibition of either Rho GTPase Racl or CDC42 in macrophages results in a complete blockade of FcR-mediated phagocytosis due to defective actin assembly. To investigate induction of phagocytic signal transduction cascades, CER-expressing cells were interrogated for the activation of CDC42 and Racl. […] Ba/F3 cells were transduced with lentiviral vectors comprising CER21 nucleic acid, CER116 nucleic acid, or vector alone (mock). Target thymocyte cells were stained with pHrodo red. CER-transduced Ba/F3 cells were co-cultured with dexamethasone pre-treated thymocytes for 2 hours. The Racl inhibitor NSC23766 (Selleck Chem) was added during the co-culture in appropriate wells. Cells were then collected, solubilized in lysis buffer, and immunoprecipitation was performed on protein lysates to detect phospho-Racl using PAK-PBD agarose beads (Cytoskeleton, Inc.). Immunoprecipitates were eluted and 25 μg of protein was loaded onto SDS-PAGE gradient gels and then probed with monoclonal, mouse anti-Racl primary antibody (Cytoskeleton Inc.) overnight at 4° C., washed, and hybridized with secondary, anti-mouse antibody conjugated to horseradish peroxidase (Jackson Labs) (FIG. 85A). […] Protein gel bands were quantified using ImageJ image processing program, and the proportion of activated Racl was quantified (FIG. 85B). […]

SCC152 cells [3] = test system: SCC152 cells
Procedure: Peripheral blood was collected by venipuncture from a human donor, and human peripheral blood mononuclear cells (PBMCs) were isolated by density gradient centrifugation using lymphocyte separation media. CD8+ T cells were enriched from PBMCs using a commercially available isolation kit and activated with anti-CD3 and anti-CD28 in Complete Cell Growth Media. 50 μl of viral vector expressing the CER-HPV16 E7 TCR combination were diluted in 0.5 ml Complete Cell Growth Media and added to the CD8+ T cells. The transduced T cells were then centrifuged at 270×g rpm for 1 hour in a 32° C. pre-warmed centrifuge. The T cells were incubated for 24 hours at 37° C. T cells were expanded for another 72 hours in Complete Cell Growth Media, de-beaded, and allowed to expand x 5 days prior to being utilized for functional assays.
Cytotoxic activity of tandem expression cassette transduced CD8+ T cells was detected using a caspase 3/7 apoptosis reagent (IncuCyte®) that couples the activated caspase 3/7 recognition motif with a red reagent that fluoresces upon cleavage. The fluorescent signal was measured using fluorescent microscopy. […] The caspase 3/7 apoptosis reagent was added to the co-culture, and cytotoxic activity was measured over time by measuring fluorescence (see, FIG. 40). […]

SCC152 cells [4] = assay: Phagocytic activity of tandem expression cassette transduced CD8+ T cells; type: cell-based, human
Procedure: Phagocytic activity of tandem expression cassette transduced CD8+ T cells was detected by co-culturing tandem expression cassette transduced CD8+ T cells with SCC152 cells for 6 hours at a 1:1 ratio. Phagocytic events were visualized and quantified using KEYENCE BZ-X710 fluorescence microscope, 20X objective and hybrid capture software.

[5] = Engulfment of phosphatidylserine coated latex beads; type: cell-based
SCC152 cells [6] = assay: Cytokine response of tandem cassette transduced CD8+ T cells; type: cell-based, human; details: CD8+ T cells co-cultured with SCC152 cells

B1: CER116: Tim4 binding and transmembrane domains, TRAF6 primary and TLR8 secondary signaling domains; SEQ ID NO:143 (protein)
chain: MSKGLLLLWLVTELWWLYLTPAASEDTIIGFLGQPVTLPCHYLSWSQSRNSMCWGKGSCPNSKCNAELLRTDGTRIISRKSTKYTLLGKVQFGEVSLTISNTNRGDSGVYCCRIEVPGWFNDVKKNVRLELRRATTTKKPTTTTRPTTTPYVTTTTPELLPTTVMTTSVLPTTTPPQTLATTAFSTAVTTCPSTTPGSFSQETTKGSAFTTESETLPASNHSQRSMMTISTDIAVLRPTGSNPGILPSTSQLTTQKTTLTTSESLQKTTKSHQINSRQTILIIACCVGFVLMVLLFLAFLMSLLNCENSCGSSQSESDCCVAMASSCSAVTKDDSVGGTASTGNLSSSFMEEIQGYDVEFDPPLESKYECPICLMALREAVQTPCGHRFCKACIIKSIRDAGHKCPVDNEILLENQLFPDNFAKREILSLMVKCPNEGCLHKMELRHLEDHQAHCEFALMDCPQCQRPFQKFHINIHILKDCPRRQVSCDNCAASMAFEDKEIHDQNCPLANVICEYCNTILIREQMPNHYDLDCPTAPIPCTFSTFGCHEKMQRNHLARHLQENTQSHMRMLAHHLFYWDVWFIYNVCLAKVKGYRSLSTSQTFYDAYISYDTKDASVTDWVINELRYHLEESRDKNVLLCLEERDWDPGLAIIDNLMQSINQSKKTVFVLTKKYAKSWNFKTAFYLALQRLMDENMDVIIFILLEPVLQHSQYLRLRQRICKSSILQWPDNPKAEGLFWQTLRNVVLTENDSRYNNMYVDSIKQY
modifications: CER116 protein
In the case of B1, the “memory formation after antigen encounter” value ([1]; CD4+ T cells) is reported as “associated with memory formation after antigen encounter”, the “viSNE islands expressing T cell activation marker CD69” value ([1]; CD4+ T cells after antigen encounter) is reported as “enrichment of islands expressing the T cell activation marker CD69” and the “viSNE islands expressing intracellular marker IFNγ” value ([1]; CD4+ T cells after co-culture with E7 TCR CD8+ T cells and SCC152 cells) is reported as “enrichment of islands expressing the intracellular marker IFNγ”. The “viSNE islands expressing naïve T cell marker CD45RA within the CCR7+ population” value ([1]; compared to controls) was “loss of islands expressing the naïve T cell marker CD45RA”, the “time to near complete resolution of luminal contents” value [2] was no more than 36 h and the “luminal content degradation over time” value ([2]; FACS purified after overnight co-culture) was “enhanced CER116 luminal content degradation over time”. For the same molecule, the “Racl signaling (proportion of activated Racl)” value (Racl) was “enhanced Racl signaling”.

B2: CER21−HPV16 E7 TCR: tandem expression cassette: CER21, T2A peptide, HPV16 E7 specific TCR; SEQ ID NO:166 (protein)
chain: MSKGLLLLWLVTELWWLYLTPAASEDTIIGFLGQPVTLPCHYLSWSQSRNSMCWGKGSCPNSKCNAELLRTDGTRIISRKSTKYTLLGKVQFGEVSLTISNTNRGDSGVYCCRIEVPGWFNDVKKNVRLELRRATTTKKPTTTTRPTTTPYVTTTTPELLPTTVMTTSVLPTTTPPQTLATTAFSTAVTTCPSTTPGSFSQETTKGSAFTTESETLPASNHSQRSMMTISTDIAVLRPTGSNPGILPSTSQLTTQKTTLTTSESLQKTTKSHQINSRQTILIIACCVGFVLMVLLFLAFLHHLFYWDVWFIYNVCLAKVKGYRSLSTSQTFYDAYISYDTKDASVTDWVINELRYHLEESRDKNVLLCLEERDWDPGLAIIDNLMQSINQSKKTVFVLTKKYAKSWNFKTAFYLALQRLMDENMDVIIFILLEPVLQHSQYLRLRQRICKSSILQWPDNPKAEGLFWQTLRNVVLTENDSRYNNMYVDSIKQYLEGGGEGRGSLLTCGDVEENPGPMAPGLLCWALLCLLGAGLVDAGVTQSPTHLIKTRGQQVTLRCSPKSGHDTVSWYQQALGQGPQFIFQYYEEEERQRGNFPDRFSGHQFPNYSSELNVNALLLGDSALYLCASSLGWRGGRYNEQFFGPGTRLTVLEDLRNVTPPKVSLFEPSKAEIANKQKATLVCLARGFFPDHVELSWWVNGKEVHSGVCTDPQAYKESNYSYCLSSRLRVSATFWHNPRNHFRCQVQFHGLSEEDKWPEGSPKPVTQNISAEAWGRADCGITSASYQQGVLSATILYEILLGKATLYAVLVSTLVVMAMVKRKNSRAKRSGSGATNFSLLKQAGDVEENPGPMWGVFLLYVSMKMGGTTGQNIDQPTEMTATEGAIVQINCTYQTSGFNGLFWYQQHAGEAPTFLSYNVLDGLEEKGRFSSFLSRSKGYSYLLLKELQMKDSASYLCASVDGNNRLAFGKGNQVVVIPNIQNPEPAVYQLKDPRSQDSTLCLFTDFDSQINVPKTMESGTFITDKCVLDMKAMDSKSNGAIAWSNQTSFTCQDIFKETNATYPSSDVPCDATLTEKSFETDMNLNFQNLLVIVLRILLLKVAGFNLLMTLRLWSS
modifications: CER21_T2A_HPV16_E7_TCR tandem cassette
With B2 the “cytotoxic activity toward SCC152 cells (caspase 3/7)” value (SCC152 cells [3]; CD8+ T cells, 1:1 ratio) was “exhibit cytotoxic activity toward SCC152 cells”, the “cytotoxic response relative to CD8+ T cells comprising HPV16 E7 TCR alone” value (SCC152 cells [3]; by 6 hours) was “exponentially higher” and the “phagocytosis of SCC152 cells” value (SCC152 cells [4]; CD8+ T cells, 6 hours, 1:1 ratio) was “capable of phagocytosing SCC152 cells”. For the same molecule, the “dependence of engulfment of SCC152 cells on Racl” value (SCC152 cells [4]; Racl inhibitor NSC23766 (50 μM), data not shown) was “Racl-dependent manner”, the “incubation time after which phosphatidylserine coated beads could be visualized inside the T cells” value [5] was “about 30 minutes” and the “engulfment of phosphatidylserine coated beads” value ([5]; CD8+ T cells, data not shown) was “engulfed streptavidin coated latex beads”. The “antigen specific effector function (IFNγ response)” value (SCC152 cells [6]) was “exhibit antigen specific effector function as measured by IFNγ response”.
